Legend:
[1] = target: mutant outer-arm dynein (OAD) of the Chlamydomonas mutant 214 (oda6E279K), carrying IC2 E279K (Chlamydomonas reinhardtii (endogenous in flagellar axonemes)) (UniProt Q39610)
[2] = target: wild-type outer-arm dynein (OAD) of Chlamydomonas (Chlamydomonas reinhardtii (endogenous in flagellar axonemes)) (UniProt Q39610)

Substance | microtubule sliding speed in microtubule bundles formed with OAD, on perfusion with 1 mM ATP [1] [μm/sec] | microtubule sliding speed in microtubule bundles formed with OAD, on perfusion with 1 mM ATP [2] [μm/sec]
mutant outer-arm dynein (OAD) of the Chlamydomonas mutant 214 (oda6E279K), carrying IC2 E279K (from UniProt Q39610 1-4499; Q39565 1-4568; Q39575 1-4485; Q39578 1-683; P27766 1-567) (complex) | 4.3 | 
wild-type outer-arm dynein (OAD) of Chlamydomonas (from UniProt Q39610 1-4499; Q39565 1-4568; Q39575 1-4485; Q39578 1-683; P27766 1-567) (complex) |  | 35.3

From publication PMC11496786
